Source: the DeepSol protein solubility set

Test: soluble on expression in E. coli; label from the status in PepcDB or PDB records

Row | Sequence | soluble on expression in E. coli
1 | MPSARLQQQFIRLWQCCEGKSQDTTLNELAALLSCSRRHMRTLLNTMQDRGWLTWEAEVGRGKRSRLTFLYTGLALQQQRAEDLLEQDRIDQLVQLVGDKATVRQMLVSHLGRSFRQGRHILRVLYYRPLRNLLPGSALRRSETHIARQIFSSLTRINEENGELEADIAHHWQQISPLHWRFFLRPGVHFHHGRELEMDDVIASLKRINTLPLYSHIADIVSPTPWTLDIHLTQPDRWLPLLLGQVPAMILPREWETLSNFASHPIGTGPYAVIRNSTNQLKIQAFDDFFGYRALIDEVNVWVLPEIADEPAGGLMLKGPQGEEKEIESRLEEGCYYLLFDSRTHRGANQQVRDWVSYVLSPTNLVYFAEEQYQQLWFPAYGLLPRWHHARTIKSEKPAGLESLTLTFYQDHSEHRVIAGIMQQILASHQVTLKIKEIDYDQWHTGEIESDIWLNSANFTLPLDFSVFAHLCEVPLLQHCIPIDWQADAARWRNGEMNLANWCQQLVASKAMVPLLHHWLIIQGQRSMRGLRMNTLGWFDFKSAWFAPPDP | not soluble
2 | GPGSMPALKPLLVFGLRGTLVERIHVRHVPEGMPAADFTVGLVKVWLRPHMVEVLNELQEHCRLAIWSSTTARNTHPLVNAVFGSNMTLQAGAGATTAAPARQEAASASAVVAASASNGRSGRFGTKRRPTKAEAADEESASEAAINAPKPQRVHFEFVWTREHTRVDDFRRLNAAVNDDSHATVKDLSQVFAQFPSIAQPQNTVLIDDTPSKAKMQADNYLWLDTCSNLRIKDETSLYRLRDFVMRELVPAEDVRELLPRRIRM | soluble
3 | MHHYRVSGWTLATEIPLPHLFPCSAPAGEAAADITLRQGPVPPPPVPLRLDRDGIQVGADGHTVIDIPNCVRIGLTGGRDIMVDPAPGASWPEIQTWLLGPGLGVICHQRGVLPLHACAIRTGKGGLAIVGNSGAGKSTTATALVQRGHRLLGDDVLVVDPDTGLAQPCFPMVKLWDSSRSALDIGQEGQQSVGGKIGKWHMPMLAAFDPVPRPLSAIVHLRADPAARRPVLTRWPRPHAAAVLDAMTYRVYLADALHGRRHVLSAATRLAAHVPVWELVRTADFADLAEMLDMLEGLAGALEHHHHHH | not soluble
4 | MICWGEQKRQADPGFFCRKIVEGVSQPIWLVSDTRRTSDIQWFQEAYGAVIQTVRVVASEQSRQQRGWVFTPGVDDAESECGLDNFGNFDWVIENHGDEQCLEDQLEHLLGFIQAKL | not soluble
5 | SPAPNQPAAKKTLDSTPAQDKPPQPNSQGKKLASVALLLVLALGAGFAYVHQQQKSEFNNQLQAVRAELKQTRDALNAQLEQTVSKATSQATEITHRAETVLEQQQKSIESLQLAVADIKGRRPNDWLLAEADYLVKLAGRKLFLEHDVETATQLMESADQRIAALNDPSLTALRKAMANDITTLKNIPLIDRDGLVLRLISLQQQIDSLPLANAILPADQPQTSQAVSENIDDWQTNLKNSLKAFADNFITFRSRDGNVIPLLSPTQHFYLRENLQAKLETAIKGVYTEQQTLYRIALDTAAQWSTSFFNPDDKAVQSFNAALAQLAEQQVQVEYPVKLQAQQQLADVINERLRRSVSPLTTGA | not soluble
6 | MGSDKIHHHHHHMGEAIEVAEGALWMRLPLPMKLDHVNVYAFDEGDSWTVVDTGMSSNKTRRIWEQLMAGPLGGKPVRRVVVTHHHPDHIGNAGWFQSEHGAELVTTRTAWLFARMLTLDVQESWPEETLAYYRSAGMDPEVYDTRKADRPFNFADTVYPMPLGFTRVQQGDVFRMGGRDWDIHMGNGHAPEHATLWSRDDNLVLTGDQVLSSISPNIGVYATEPEADPLAEWLEACERLAALARPEHLALGGHKLPFTRLPLRMRQLIDNHHGALERLMEFLETPKSAAECFPTLFKRTIGPGEYGLALVEAVAHVNHLYRTGQVTRTRRSDEAWVYQRR | not soluble
7 | MSLHRISDRFPVHVVVWPVKVQGEGSGEEVANAIRGFNALKPGGDIARPDVLIVARGGGSLEDLWSFNDEIVVRAAAESEIPLISAVGHETDTTLIDYAADVRAPTPTGAAEMAVPVRAELEAQLSGLAARLSGSVSRQMDNRRQGVRALVRALPSLDQLLALPRRRFDEAASGLGRGLELTTLNKRRAFERSASGLRPETLLNGLKHHRQRITERMHRAETLVEREGHHHHHH | soluble
8 | METLLTQILDRLDQLHSSVGALTSDVNEMKNQLNKIEARAGSIEERVNSIEARVDSIESRVNNIEANMATKDELAELRSKVDDIEAKMATKDELAELRSTVNGLQSNVNEIQAKMATKEELAELRSKVNELQFKVNELQSNVNEIQAKMATKDDLVPIRQAVMEIDQIVKRIEVNQERHEHILAILSKRSIEHEASIASLRQAQ | not soluble
9 | MGSDKIHHHHHHMSEPVIKSLLDTDMYKITMHAAVFTNFPDVTVTYKYTNRSSQLTFNKEAINWLKEQFSYLGNLRFTEEEIEYLKQEIPYLPSAYIKYISSSNYKLHPEEQISFTSEEIEGKPTHYKLKILVSGSWKDTILYEIPLLSLISEAYFKFVDIDWDYENQLEQAEKKAETLFDNGIRFSEFGTRRRRSLKAQDLIMQGIMKAVNGNPDRNKSLLLGTSNILFAKKYGVKPIGTVAHEWVMGVASISEDYLHANKNAMDCWINTFGAKNAGLALTDTFGTDDFLKSFRPPYSDAYVGVRQDSGDPVEYTKKISHHYHDVLKLPKFSKIICYSDSLNVEKAITYSHAAKENGMLATFGIGTNFTNDFRKKSEPQVKSEPLNIVIKLLEVNGNHAIKISDNLGKNMGDPATVKRVKEELGYTERSWSGDNEAHRWT | soluble
10 | MSYTKEQLMLAFSYMSYYGITHTGSAKKNAELILKKMKEALKTWKPFQEDDWEVVWGPAVYTMPFTIFNDAMMYVIQKKGAEGEYVIAIRGTNPVSISDWLFNDFMVSAMKKWPYASVEGRILKISESTSYGLKTLQKLKPKSHIPGENKTILQFLNEKIGPEGKAKICVTGHSKGGALSSTLALWLKDIQGVKLSQNIDISTIPFAGPTAGNADFADYFDDCLGDQCTRIANSLDIVPYAWNTNSLKKLKSIYISEQASVKPLLYQRALIRAMIAETKGKKYKQIKAETPPLEGNINPILIEYLVQAAYQHVVGYPELMGMMDDIPLTDIFEDAIAGLLHHHHHH | soluble
11 | MGLTAGIVGLPNVGKSTLFNAITQAGAESANYPFCTIDPNVGIVEVPDERLNKLTELVEPKKTVPTVFEFTDIAGIVKGASKGEGLGNKFLSHIRQVDAICQVVRCFEDENITHVSGKVDPIDDIETINLELILADLESVDKRIERVAKLARQKDKEAVYEHEILVRLKEAFEEGKPARTVEFTEEQMKIVKGLHLLTTKEMLYVANVSEDDVIDPSENKYVQMVKEFAANENSQVIVVCAKIESEIAELDEEEKKVFLEELGIEESGLDQLIRAAYDLLGLATYFTAGVQEVRAWTFKQGMKAPQCAGVIHTDFERGFIRAETVSYEDLMTNGSMTAAKEAGKVRLEGKEYIVKDGDVMHFRFNV | soluble
12 | GPGSMSGTLLKEELLQLDNKRRSIMRDIEEAMTFLNSTPVGLRGSLVDSEGFPRDDCDLYAVRRARHTVNCGHNDLKSIEATIHEKLSQLHEECRGEAEEQMQRDKMKKKSEDDQRRRDEQKQVMSSKEPFVRVVDVATGSPAEEGGLICGHLIVQYGDVDAEKVLEGGFGEMARVTSSYEGQMLRVWVRSPSDDDCGGARELFIVPQRWRGEGLLGCTFEPMKLN | soluble
13 | MGSDKIHHHHHHMMNERIKQRRKELGLTQPSIAKTIGLTKATISLWESGSTSPKGENLHALAKALRCAPEFLLFGNDSIKPEPNAEWAGGFETWGSNSPLGDDEVEIPFYMEVELAAGDGIIDCREYQGPKLRFAKSTLKRQGVTSDHAACVKVNGNSMEPVLPNGSTVGVDTAHTDIVDGKMYAINHDGMLRVKMLYKLPGGGLRLRSYNLDEYPDERLDAEELKQVKVIGKVFWYSVLV | not soluble
14 | MFRSVVVSVRQPAVAGYFYPDDPLTLKQTVLNFLDQAPIHKPAPKAILVPHAGYVYSGAVAASAYASLRDKKDTINKIILLGPAHRLYFKGIAYDPVDKFATPLGEIDQDKELLTQIIDLPYVYSLPEAHQNEHCLEVQLPFCQMIFSKFKILPLVIGETNPQDVARLIARIWGGDDTLLIISSDLSHYLPYHIAQREDKKTCLSIDTLNGEEILHDAACGYFPLRGFLYFGRQNHVYSRLLDLRNSGDTAGDKERVVGYAAYHFYQKLKFSEHCADELKYIAKETIRLQTEENKALTINYNDYSQLLQMRVPTFITLKKNGMLRGCMGSLTTKDPLAENIIYNSIRAASADPRFPQIKPCELKELSLTISLIKPLSPLHFDSEEELKSQLQIGLDGLVLICGPYQATFLPSVWESVKTKDEFINHLKLKMGLSENFWSSEMRALRYATEIIKLEHHHHHH | not soluble
15 | MADETELKRLYWHSRRGMLELDVLLVPFVQEVYPGLDAEDQARFRKLLECEDQDMFGWFMQRGEPEDADLRRMVRMILDRVQPD | not soluble
16 | MGSDKIHHHHHHMLIFVMKPRSNPVTGGFHSDKFANWNTMPLETLPVISLAGEPDALSRELGESFRTFGFAMVRDHGIDPDLIARAWDLTAQFFALPEAEKRSYYLDGLAGARGYTPFGTEIAKGARLHDLKEFWHVGRDLPAGHPLSASMPPNVWPARPEGFRQTFETLYGEFDKVGARILSRIAVWLGLDENWFDPAIEDGNSVMRLLHYPPVPDAESGAIRAGAHEDINLITLLLGAEEAGLELLSRQGEWIGVSPPEGALVVNIGDMLQRLTNHVLPSTTHRVRNPEGERARFSRYSMPFFLHLRSDFPFVTLPQCISDENPDRYPVSITADDYLQERLREIGLRK | not soluble
17 | MSLSLKIALISQNENLLNLFPKLALEKNFIPITKTASLTRASKIAFGLQDEVDAIISRGATSDYIKKSVSIPSISIKVTRFDTMRAVYNAKRFGNELALIAYKHSIVDKHEIEAMLGVKIKEFLFSSEDEITTLISKVKTENIKIVVSGKTVTDEAIKQGLYGETINSEGHHHHHH | not soluble
18 | MAHHHHHHMKKAKGSMKRLREGAENGTGGRNSSMKRQKGSTTGALSFAITNNTVTLERKARRQPKVAERCEDDDDEEDVELSKAVQAQTLSFLQHLNSKSSKTFWELRDVAQGKLSAASATTATSSSSQLPSSSRTKAAKGNAKGAKKLADDGEELWRVGGPYISGDQADDTDESERECGRTSDSELQSSTSSSEPSWVTDSSEEEDGGGSDDEAESAPVAAGATSRRSAAEPPKRGGGGGRLFQGGGDGVWDED | soluble
19 | MYTAEQKARIKWACRRGMLELDVVIMPFFEECFDSLTESEQDDFVALLESDDPDLFAWVMGHGRCENLGLAAMVDKIVAHNLSKVRLEHHHHHH | soluble
20 | MDRFKVVVTDYEFQTLAPEQEVLSSLNVEFVATQCRTEEEVISACRDADAIINQYAPISAEVIAQLEKCKIISRYGVGVNTVDVDAATEKGIIVANVTDYSIDEVSDHALALLLSLARKIVKLNHEVKSGTWNFNVGKPIYRLRGRTLGLVGLGRIPQALAKKAQAFGLRVIAYDPYVPAKVADELNVQLLGLNDVFRQSDYISVHAPLTKETKGMISDEQFNLAKKELIIVNTARGPVIDESALIRALQEGKISGAGLDVTECEPIQPDNPLLKMENVVITPHVAWYSEESEKELKRKTAQNVADVLSGYYPTYLVNHNVKEKMRLKEKGLYV | soluble
21 | SMGGFMEDLRKCKIIFIIGGPGSGKGTQCEKLVEKYGFTHLSTGELLREELASESERSKLIRDIMERGDLVPSGIVLELLKEAMVASLGDTRGFLIDGYPREVKQGEEFGRRIGDPQLVICMDCSADTMTNRLLQMSRSSLPVDDTTKTIAKRLEAYYRASIPVIAYYETKTQLHKINAEGTPEDVFLQLCTAIDSIFL | soluble
